Data on 2 molecules can be found in patent US20220348635A1, “COMPOSITIONS AND METHODS FOR NEUROLOGICAL DISEASES” (Coda Biotherapeutics, Inc., priority 2019, published 2022).

The nature of test [1]: Sensitivity of parental chimera versus wild type α7-nAChR, Facinicline/RG3487. The text has this:
(§1) To generate LGICs that conduct anion current following exposure to non-native small molecule agonists of the human α7-nAChR, chimeric ligand gated ion channel (LGIC) receptors comprising the ligand binding domain derived from the human α7 nicotinic acetylcholine receptor (α7-nAChR) and the chloride-conducting ion pore domain derived from the human GlyR1α were genetically engineered.

Test [2] in a line: Sensitivity of parental chimera versus wild type α7-nAChR, acetylcholine.
Excerpt: as §1

A short description of test [3]: Sensitivity of parental chimera versus wild type α7-nAChR, AZD-0328.
Excerpt: as §1

A short description of test [4]: Sensitivity of parental chimera versus wild type α7-nAChR, TC-6987.
Excerpt: as §1

A short description of test [5]: Sensitivity of parental chimera versus wild type α7-nAChR, nicotine.
Excerpt: as §1

A short description of test [6]: Sensitivity of parental chimera versus wild type α7-nAChR, ABT-126.
Excerpt: as §1

A short description of test [7]: High throughput electrophysiology in HEK293T cells, AZD-0328. It is filed as cell-based. The gist of the method:
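Engineered receptors transiently expressed in HEK293T cells, recorded 24 h post-transfection by automated whole-cell patch clamp at −60 mV, CsCl intracellular, pH 7.2 extracellular buffer. Progressive agonist doses applied for 1 s; peak currents fit to a 4-parameter Hill equation for EC50.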

Test [8] can be described thus: YFP quench plate reader assay, response to acetylcholine. As to conditions: LX293T YFP reporter cells. It is filed as cell-based. The procedure, abridged: (§2)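 LX293T cells stably expressing an anion-quenched YFP reporter were transiently transfected with DNA for double-substitution mutants of chimeric LGIC SEQ ID NO:33. Ligand, prepared at 2× in NaI-based ECS (pH 7.2), was added after a 17 sec baseline, and YFP quench was read over 2 min on a Flexstation3.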

Test [9] can be described thus: YFP quench plate reader assay, response to TC-5619. It is filed as cell-based. As to conditions: LX293T YFP reporter cells. The procedure, abridged: as §2
A short description of test [10]: YFP quench plate reader assay, response to ABT-126. As to conditions: LX293T YFP reporter cells. The test is classed as cell-based. The procedure, abridged: as §2
Test [11] is described as follows: High throughput electrophysiology in HEK293T cells, RG-3487. It is filed as cell-based. The procedure:
To confirm the EC50s determined by plate reader as well as develop a better understanding of maximum current flow, the engineered receptors were subjected to high throughput electrophysiology system, as described below. For HEK293T studies, cDNAs encoding ion channels were cloned into pcDNA3.1 using standard recombination techniques. HEK293T cells from Clontech (Lenti-X™ 293T Cell Line) were cultured in DMEM supplemented with 10% FBS and 1% Pen/Strep to 40-50% confluence using standard cell culture protocols, transfected with ion channel plasmids at a concentration of 18 μg per 15 cm dish using Fugene 6, and grown for an additional 24 hours. Cells were then assayed on a electrophysiological system (IonFluxHT and/or Mercury, Fluxion Biosciences) in which dose-response relationships may be assessed through a microfluidics-based platform for establishing whole cell configurations. […] Data were then analyzed off-line using custom Python scripts to convert data to .csv format, re-plot traces, and apply QC measurements to reject unstable recordings (i.e. thresholding based on access resistance and/or standard deviation in baseline, as well as artifact rejection). Peak currents were then calculated and population data were fit using a 4-parameter logistic equation as described by the Hill Equation. […]

Test [12] can be described thus: YFP quench plate reader assay, response to RG3487. It is filed as cell-based. As to conditions: LX293T YFP reporter cells. The gist of the method:
as §2

The nature of test [13]: YFP quench plate reader assay, response to APN-1125. It is filed as cell-based. To be noted: LX293T YFP reporter cells. The procedure, abridged:
as §2

Test [14] can be described thus: YFP quench plate reader assay, response to AZD-0328. The test is classed as cell-based. As to conditions: LX293T YFP reporter cells. The procedure, abridged:
as §2

Test [15] in a line: YFP quench plate reader assay, response to TC-6987. It is filed as cell-based. As to conditions: LX293T YFP reporter cells. The gist of the method:
as §2

B1: SEQ ID NO: 33: parental CHRNA7/GLRA1 chimera: α7-nAChR ligand binding domain with GlyRα1 Cys-loop, fused to GlyRα1 ion pore domain (protein)
chain: MRCSPGGVWLALAASLLHVSLQGEFQRKLYKELVKNYNPLERPVANDSQPLTVYFSLSLLQIMDVDEKNQVLTTNIWLQMSWTDHYLQWNVSEYPGVKTVRFPDGQIWKPDILLYNSADERFDATFHTNVLVNSSGHCQYLPPGIFKSSCPMDLKNFPMDVQTCKLKFGSWSYGGWSLDLQMQEADISGYIPNGEWDLVGIPGKRSERFYECCKEPYPDVTFTVTMRRRMGYYLIQMYIPSLLIVILSWISFWINMDAAPARVGLGITTVLTMTTQSSGSRASLPKVSYVKAIDIWMAVCLLFVFSALLEYAAVNFVSRQHKELLRFRRKRRHHKSPMLNLFQEDEAGEGRFNFSAYGMGPACLQAKDGISVKGANNSNTTNPPPAPSKSPEEMRKLFIQRAKKIDKISRIGFPMAFLIFNMFYWIIYKIVRREDVHNQ
modifications: synthetic sequence of chimeric LGIC
Take B1: the “fold more sensitive to Facinicline/RG3487 than wild type” value in test [1] is listed as ~10 fold. The “sensitivity to acetylcholine compared to wild type α7-nAChR” value in [2] is recorded as “approximately as sensitive”. The “fold more sensitive to AZD-0328 than wild type” value in test [3] was “approximately 3 fold”. In [4], the “sensitivity to TC-6987 compared to wild type α7-nAChR” value is reported as “approximately as sensitive”. Also, the “type of agonist activity of TC-6987 on the receptor” value in test [4] (similar to wild type) is on record as “partial agonist activity”. For the same molecule, the “fold less sensitive to nicotine than wild type” value in test [5] was ~2 fold. Further, the “sensitivity to ABT-126 compared to wild type α7-nAChR” value in test [6] was “approximately as sensitive”.

B2: L131D, S172D in SEQ ID NO: 33: engineered chimeric α7-nAChR/GlyRα1 LGIC receptor: SEQ ID NO: 33 with substitutions L131D and S172D (protein)
chain: MRCSPGGVWLALAASLLHVSLQGEFQRKLYKELVKNYNPLERPVANDSQPLTVYFSLSLLQIMDVDEKNQVLTTNIWLQMSWTDHYLQWNVSEYPGVKTVRFPDGQIWKPDILLYNSADERFDATFHTNVDVNSSGHCQYLPPGIFKSSCPMDLKNFPMDVQTCKLKFGSWDYGGWSLDLQMQEADISGYIPNGEWDLVGIPGKRSERFYECCKEPYPDVTFTVTMRRRMGYYLIQMYIPSLLIVILSWISFWINMDAAPARVGLGITTVLTMTTQSSGSRASLPKVSYVKAIDIWMAVCLLFVFSALLEYAAVNFVSRQHKELLRFRRKRRHHKSPMLNLFQEDEAGEGRFNFSAYGMGPACLQAKDGISVKGANNSNTTNPPPAPSKSPEEMRKLFIQRAKKIDKISRIGFPMAFLIFNMFYWIIYKIVRREDVHNQ
modifications: synthetic sequence of chimeric LGIC
With B2, the “fold increased potency towards AZD-0328 compared to wild type receptor” value in test [7] was “at least 10 fold”. The “percent quench of YFP fluorescence, 10 uM ach” value in test [8] (10 uM acetylcholine) is −12.91%. Moreover, the “percent quench of YFP fluorescence, 100 uM ach” value in test [8] (100 uM acetylcholine) is given as −20.88%. Moreover, the “percent quench of YFP fluorescence, 1 mM ach” value in test [8] (1 mM acetylcholine) was 79.85%. For the same molecule, in test [8] (3 mM acetylcholine), the “percent quench of YFP fluorescence, 3 mM ach” value is recorded as 79.98%. Besides, in test [9] (1 nM TC-5619), the “percent quench of YFP fluorescence, 1 nM brd” value was −1.24%. The “percent quench of YFP fluorescence, 3 nM brd” value in test [9] (3 nM TC-5619) amounted to 0.25%. Besides, in [9] (10 nM TC-5619), the “percent quench of YFP fluorescence, 10 nM brd” value was −2.57%. The “percent quench of YFP fluorescence, 30 nM brd” value in [9] (30 nM TC-5619) was found to be 0.78%. Moreover, in test [9] (100 nM TC-5619), the “percent quench of YFP fluorescence, 100 nM brd” value was determined as 4.51%. In addition, the “percent quench of YFP fluorescence, 300 nM brd” value in [9] (300 nM TC-5619) is reported as 30.97%. Also, the “percent quench of YFP fluorescence, 1 uM brd” value in test [9] (1 uM TC-5619) is listed as 44.41%. Besides, the “percent quench of YFP fluorescence, 50 nM abt” value in test [10] (50 nM ABT-126) is listed as −3.19%. In addition, the “percent quench of YFP fluorescence, 100 nM abt” value in test [10] (100 nM ABT-126) was found to be 7.58%. The “percent quench of YFP fluorescence, 300 nM abt” value in [10] (300 nM ABT-126) is reported as −1.65%. Besides, the “percent quench of YFP fluorescence, 1 uM abt” value in test [10] (1 uM ABT-126) stood at 31.29%. Besides, the “fold increased potency to RG-3487 compared to wild type receptor” value in test [11] is recorded as “at least 10 fold”. The “percent quench of YFP fluorescence, 30 nM fac” value in test [12] (30 nM RG3487) is 24.15%. The “percent quench of YFP fluorescence, 300 nM fac” value in test [12] (300 nM RG3487) is recorded as 80.17%. Also, the “percent quench of YFP fluorescence, 10 uM fac” value in [12] (10 uM RG3487) is reported as 81.34%. In test [12] (30 uM RG3487), the “percent quench of YFP fluorescence, 30 uM fac” value is reported as 79.9%. Moreover, the “percent quench of YFP fluorescence, 100 nM apn” value in test [13] (100 nM APN-1125) came out at 71.72%. For the same molecule, in [13] (1 uM APN-1125), the “percent quench of YFP fluorescence, 1 uM apn” value came out at 77.26%. Moreover, the “percent quench of YFP fluorescence, 30 uM apn” value in [13] (30 uM APN-1125) was 77.5%. Moreover, in test [14] (100 nM AZD-0328), the “percent quench of YFP fluorescence, 100 nM azd” value is 51.44%. The “percent quench of YFP fluorescence, 300 nM azd” value in [14] (300 nM AZD-0328) came to 77.12%. The “percent quench of YFP fluorescence, 30 uM azd” value in test [14] (30 uM AZD-0328) came to 79.26%. For the same molecule, the “percent quench of YFP fluorescence, 1 uM tc6” value in test [15] (1 uM TC-6987) is reported as −18.24%. In addition, the “percent quench of YFP fluorescence, 10 uM tc6” value in test [15] (10 uM TC-6987) was −23.06%. For the same molecule, in [15] (500 uM TC-6987), the “percent quench of YFP fluorescence, 500 uM tc6” value is reported as −19.3%.
